Laboratory results as given in patent publication US20240321457A1 (University of California, published 2024).

T1: UBE2N (human, UniProt P61088 1-152)
T1 construct: endogenous prey from cell lysate; also called UBC13
T1 sequence (looked up): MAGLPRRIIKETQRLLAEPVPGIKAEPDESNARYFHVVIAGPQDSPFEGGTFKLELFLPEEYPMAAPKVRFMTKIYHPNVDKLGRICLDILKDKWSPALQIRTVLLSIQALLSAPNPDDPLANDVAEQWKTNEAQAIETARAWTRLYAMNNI


Target: T1, UBE2N
Assay: AP-MS, PPI score from compPASS and SAINTexpress, MDA-MB-231 cells
Procedure: For AP-MS experiments, samples were resuspended in 15 μL of MS loading buffer (4% formic acid, 2% acetonitrile) and 2 μL were separated by a reversed-phase gradient over a nanoflow 75 μm ID×25 cm long picotip column packed with 1.9 μM C18 particles (Dr. Maisch). Peptides were directly injected over the course of a 75 min acquisition into a Q-Exactive Plus mass spectrometer (Thermo), or over the course of a 90 min acquisition into a Orbitrap Elite mass spectrometer. […] Peptides and proteins were filtered to 1% false discovery rate in MaxQuant, and identified proteins were then subjected to protein-protein interaction scoring.
All PPI scoring was performed separately for each cell line. For SAINTexpress, control samples in which bait protein was not induced by addition of doxycycline were used. For CompPASS, a stats table representing all WT baits was used. After scoring, the CompPASS WD and Z-score were normalized within a given bait for each cell line. The total list of candidate PPIs was filtered to those that met the following criteria: SAINTexpress BFDR=<0.05, WD percentile by bait>=0.95, and Z-score percentile by bait≤=0.95. PPIs passing all 3 of these criteria were considered to be high-confidence PPIs. To enable visualization and analysis of PPIs by confidence score among these 3 criteria, a PPI score was calculated: [(WD percentile by bait+Z-score percentile by bait)/2)+(1−BFDR)]/2.

PPI score | Binder
< 0.6 | BRCA1 C61G (enzyme, human, UniProt P38398 1-1863, looked up, 3xFLAG-tagged bait; also called RING domain mutant C61G) MDLSALRVEEVQNVINAMQKILECPICLELIKEPVSTKCDHIFCKFCMLKLLNQKKGPSQGPLCKNDITKRSLQESTRFSQLVEELLKIICAFQLDTGLEYANSYNFAKKENNSPEHLKDEVSIIQSMGYRNRAKRLLQSEPENPSLQETSLSVQLSNLGTVRTLRTKQRIQPQKTSVYIELGSDSSEDTVNKATYCSVGDQELLQITPQGTRDEISLDSAKKAACEFSETDVTNTEHHQPSNNDLNTTEKRAAERHPEKYQGSSVSNLHVEPCGTNTHASSLQHENSSLLLTKDRMNVEKAEFCNKSKQPGLARSQHNRWAGSKETCNDRRTPSTEKKVDLNADPLCERKEWNKQKLPCSENPRDTEDVPWITLNSSIQKVNEWFSRSDELLGSDDSHDGESESNAKVADVLDVLNEVDEYSGSSEKIDLLASDPHEALICKSERVHSKSVESNIEDKIFGKTYRKKASLPNLSHVTENLIIGAFVTEPQIIQERPLTNKLKRKRRPTSGLHPEDFIKKADLAVQKTPEMINQGTNQTEQNGQVMNITNSGHENKTKGDSIQNEKNPNPIESLEKESAFKTKAEPISSSISNMELELNIHNSKAPKKNRLRRKSSTRHIHALELVVSRNLSPPNCTELQIDSCSSSEEIKKKKYNQMPVRHSRNLQLMEGKEPATGAKKSNKPNEQTSKRHDSDTFPELKLTNAPGSFTKCSNTSELKEFVNPSLPREEKEEKLETVKVSNNAEDPKDLMLSGERVLQTERSVESSSISLVPGTDYGTQESISLLEVSTLGKAKTEPNKCVSQCAAFENPKGLIHGCSKDNRNDTEGFKYPLGHEVNHSRETSIEMEESELDAQYLQNTFKVSKRQSFAPFSNPGNAEEECATFSAHSGSLKKQSPKVTFECEQKEENQGKNESNIKPVQTVNITAGFPVVGQKDKPVDNAKCSIKGGSRFCLSSQFRGNETGLITPNKHGLLQNPYRIPPLFPIKSFVKTKCKKNLLEENFEEHSMSPEREMGNENIPSTVSTISRNNIRENVFKEASSSNINEVGSSTNEVGSSINEIGSSDENIQAELGRNRGPKLNAMLRLGVLQPEVYKQSLPGSNCKHPEIKKQEYEEVVQTVNTDFSPYLISDNLEQPMGSSHASQVCSETPDDLLDDGEIKEDTSFAENDIKESSAVFSKSVQKGELSRSPSPFTHTHLAQGYRRGAKKLESSEENLSSEDEELPCFQHLLFGKVNNIPSQSTRHSTVATECLSKNTEENLLSLKNSLNDCSNQVILAKASQEHHLSEETKCSASLFSSQCSELEDLTANTNTQDPFLIGSSKQMRHQSESQGVGLSDKELVSDDEERGTGLEENNQEEQSMDSNLGEAASGCESETSVSEDCSGLSSQSDILTTQQRDTMQHNLIKLQQEMAELEAVLEQHGSQPSNSYPSIISDSSALEDLRNPEQSTSEKAVLTSQKSSEYPISQNPEGLSADKFEVSADSSTSKNKEPGVERSSPSKCPSLDDRWYMHSCSGSLQNRNYPSQEELIKVVDVEEQQLEESGPHDLTETSYLPRQDLEGTPYLESGISLFSDDPESDPSEDRAPESARVGNIPSSTSALKVPQLKVAESAQSPAAAHTTDTAGYNAMEESVSREKPELTASTERVNKRMSMVVSGLTPEEFMLVYKFARKHHITLTNLITEETTHVVMKTDAEFVCERTLKYFLGIAGGKWVVSYFWVTQSIKERKMLNEHDFEVRGDVVNGRNHQGPKRARESQDRKIFRGLEICCYGPFTNMPTDQLEWMVQLCGASVVKELSSFTLGTGVHPIVVVQPDAWTEDNGFHAIGQMCEAPVVTREWVLDSVALYQCQELDTYLIPQIPHSHY
< 0.6 | BRCA1 M1775R (enzyme, human, UniProt P38398 1-1863, looked up, 3xFLAG-tagged bait; also called BRCT domain mutant M1775R) MDLSALRVEEVQNVINAMQKILECPICLELIKEPVSTKCDHIFCKFCMLKLLNQKKGPSQCPLCKNDITKRSLQESTRFSQLVEELLKIICAFQLDTGLEYANSYNFAKKENNSPEHLKDEVSIIQSMGYRNRAKRLLQSEPENPSLQETSLSVQLSNLGTVRTLRTKQRIQPQKTSVYIELGSDSSEDTVNKATYCSVGDQELLQITPQGTRDEISLDSAKKAACEFSETDVTNTEHHQPSNNDLNTTEKRAAERHPEKYQGSSVSNLHVEPCGTNTHASSLQHENSSLLLTKDRMNVEKAEFCNKSKQPGLARSQHNRWAGSKETCNDRRTPSTEKKVDLNADPLCERKEWNKQKLPCSENPRDTEDVPWITLNSSIQKVNEWFSRSDELLGSDDSHDGESESNAKVADVLDVLNEVDEYSGSSEKIDLLASDPHEALICKSERVHSKSVESNIEDKIFGKTYRKKASLPNLSHVTENLIIGAFVTEPQIIQERPLTNKLKRKRRPTSGLHPEDFIKKADLAVQKTPEMINQGTNQTEQNGQVMNITNSGHENKTKGDSIQNEKNPNPIESLEKESAFKTKAEPISSSISNMELELNIHNSKAPKKNRLRRKSSTRHIHALELVVSRNLSPPNCTELQIDSCSSSEEIKKKKYNQMPVRHSRNLQLMEGKEPATGAKKSNKPNEQTSKRHDSDTFPELKLTNAPGSFTKCSNTSELKEFVNPSLPREEKEEKLETVKVSNNAEDPKDLMLSGERVLQTERSVESSSISLVPGTDYGTQESISLLEVSTLGKAKTEPNKCVSQCAAFENPKGLIHGCSKDNRNDTEGFKYPLGHEVNHSRETSIEMEESELDAQYLQNTFKVSKRQSFAPFSNPGNAEEECATFSAHSGSLKKQSPKVTFECEQKEENQGKNESNIKPVQTVNITAGFPVVGQKDKPVDNAKCSIKGGSRFCLSSQFRGNETGLITPNKHGLLQNPYRIPPLFPIKSFVKTKCKKNLLEENFEEHSMSPEREMGNENIPSTVSTISRNNIRENVFKEASSSNINEVGSSTNEVGSSINEIGSSDENIQAELGRNRGPKLNAMLRLGVLQPEVYKQSLPGSNCKHPEIKKQEYEEVVQTVNTDFSPYLISDNLEQPMGSSHASQVCSETPDDLLDDGEIKEDTSFAENDIKESSAVFSKSVQKGELSRSPSPFTHTHLAQGYRRGAKKLESSEENLSSEDEELPCFQHLLFGKVNNIPSQSTRHSTVATECLSKNTEENLLSLKNSLNDCSNQVILAKASQEHHLSEETKCSASLFSSQCSELEDLTANTNTQDPFLIGSSKQMRHQSESQGVGLSDKELVSDDEERGTGLEENNQEEQSMDSNLGEAASGCESETSVSEDCSGLSSQSDILTTQQRDTMQHNLIKLQQEMAELEAVLEQHGSQPSNSYPSIISDSSALEDLRNPEQSTSEKAVLTSQKSSEYPISQNPEGLSADKFEVSADSSTSKNKEPGVERSSPSKCPSLDDRWYMHSCSGSLQNRNYPSQEELIKVVDVEEQQLEESGPHDLTETSYLPRQDLEGTPYLESGISLFSDDPESDPSEDRAPESARVGNIPSSTSALKVPQLKVAESAQSPAAAHTTDTAGYNAMEESVSREKPELTASTERVNKRMSMVVSGLTPEEFMLVYKFARKHHITLTNLITEETTHVVMKTDAEFVCERTLKYFLGIAGGKWVVSYFWVTQSIKERKMLNEHDFEVRGDVVNGRNHQGPKRARESQDRKIFRGLEICCYGPFTNRPTDQLEWMVQLCGASVVKELSSFTLGTGVHPIVVVQPDAWTEDNGFHAIGQMCEAPVVTREWVLDSVALYQCQELDTYLIPQIPHSHY
